Reference: PMC3237458, “PEGylation Potentiates the Effectiveness of an Antagonistic Peptide That Targets the EphB4 Receptor with Nanomolar Affinity” (PLoS ONE, 2011)
“And” between values parts separate entries of the source, which are not always exact repeats. Equal entries are not always repeated. “Also recorded” adds a separate entry of the source. Ends that are not written are not given here.

Legend:
[1] = Peptide stability in cell culture medium / conditioned medium (ELISA of functional peptide); assay type: in vitro ADME; conditions: up to 48 hours; 25 nM peptide; medium diluted 1:10; functional peptide by ELISA; 6–9 measurements; Figure 3A
Procedure: PC3 prostate cancer cells were grown in RPMI 1640 medium (Mediatech, Inc, Herndon, VA) with 10% fetal bovine serum (FBS) (Hyclone, Logan, UT), penicillin and streptomycin. B16-F10-luc-G5 melanoma cells (Caliper Life Sciences, Hopkinton, MA) were grown in Eagle's MEM with Earle's Balanced Salts (EBSS) (Hyclone, Logan, UT) supplemented with 10% FBS, non essential amino acids (Hyclone, Logan, UT), L-glutamine, sodium pyruvate (Hyclone, Logan, UT), MEM vitamin solution (Life Technologies-Invitrogen), penicillin and streptomycin (Omega Scientific, Tarzana, CA). HUVECs (Cascade Biologics, Portland, OG) were grown in Medium 200 supplemented with low serum growth supplements (Cascade Biologics), 10% FBS, penicillin and streptomycin, and fungizone (Omega Scientific, Tarzana, CA). Rat EMCs were grown in DMEM (Mediatech, Inc, Herndon, VA) supplemented with 10% FBS, penicillin and streptomycin. The different modified forms of TNYL-RAW at a concentration of 25 nM were added to fresh medium or culture medium conditioned by the cells for 1–4 days. The culture medium was collected after different time periods and diluted 1∶10 in ELISA wells. The amount of intact TNYL-RAW peptide remaining was measured by using the ELISA assays described above for measurement of binding affinity. In some experiments, the peptide was incubated at 37°C with PC3 cell conditioned medium collected from the cells in the absence or in the presence of protease inhibitors (10 µg/ml aprotinin, 5 µg/ml pepstatin, 10 µg/ml leupeptin and 0.75 mM or phenylmethylsulfonylfluoride (PMSF)).

[2] = Peptide stability in mouse serum ex vivo; assay type: in vitro ADME; conditions: undiluted mouse serum, 37°C, functional peptide by ELISA; Figures 1E, 3B
[3] = Peptide retention in mouse blood circulation; assay type: in vivo; conditions: C57BL/6 mice, intravenous, serum ELISA, 3 mice, Figure 3C; for Circulation half-life (t1/2): 2.1 nmoles TNYL-RAW-Fc, 1.5 nmoles TNYL-RAW-streptavidin, 6 nmoles PEG-TNYL-RAW, non linear regression; for AUC: % of the injected dose•hours/ml
Procedure: 2.1 nmoles TNYL-RAW-Fc, 1.5 nmoles TNYL-RAW-streptavidin and 6 nmoles PEG-TNYL-RAW, diluted in 150 µl sterile PBS, were administered to C57BL/6 mice by intravenous or intraperitoneal injection. Blood was collected from each mouse from the orbital sinus at two time points after injection and by cardiac puncture under Avertin anesthesia at a third time point. These experiments were carried out in accordance with the recommendations in the Guide for the Care and Use of Laboratory Animals of the National Institutes of Health. The protocol was approved by the Institutional Animal Care and Use Committee of the Sanford-Burnham Medical Research Institute (Animal Assurance Number: A-3053-1). After collection, the blood was […], and the serum was stored at −20°C. The different forms of TNYL-RAW in the serum were detected by using the same ELISA assays described above for measurements of binding affinity. The absorbance from wells incubated with mouse serum without TNYL-RAW was subtracted as the background and the concentration of TNYL-RAW in the blood was calculated based on a standard curve generated using serum containing known TNYL-RAW concentrations. The half-life of each peptide was estimated by using non linear regression and the program Prism (GraphPad Software Inc.). The area under the curve (AUC) was expressed as % ID•hours/ml (where ID is the initial dose of peptide injected) and calculated by dividing the AUC value obtained using the program Prism by the amount of injected peptide and multiplying by 100.

[4] = molecular target: T1, EphB4 (Homo sapiens, UniProt P54760); assay: EphB4 activation by multimeric peptide forms (unpublished data); assay type: cell-based
T1 sequence (P54760 16-987): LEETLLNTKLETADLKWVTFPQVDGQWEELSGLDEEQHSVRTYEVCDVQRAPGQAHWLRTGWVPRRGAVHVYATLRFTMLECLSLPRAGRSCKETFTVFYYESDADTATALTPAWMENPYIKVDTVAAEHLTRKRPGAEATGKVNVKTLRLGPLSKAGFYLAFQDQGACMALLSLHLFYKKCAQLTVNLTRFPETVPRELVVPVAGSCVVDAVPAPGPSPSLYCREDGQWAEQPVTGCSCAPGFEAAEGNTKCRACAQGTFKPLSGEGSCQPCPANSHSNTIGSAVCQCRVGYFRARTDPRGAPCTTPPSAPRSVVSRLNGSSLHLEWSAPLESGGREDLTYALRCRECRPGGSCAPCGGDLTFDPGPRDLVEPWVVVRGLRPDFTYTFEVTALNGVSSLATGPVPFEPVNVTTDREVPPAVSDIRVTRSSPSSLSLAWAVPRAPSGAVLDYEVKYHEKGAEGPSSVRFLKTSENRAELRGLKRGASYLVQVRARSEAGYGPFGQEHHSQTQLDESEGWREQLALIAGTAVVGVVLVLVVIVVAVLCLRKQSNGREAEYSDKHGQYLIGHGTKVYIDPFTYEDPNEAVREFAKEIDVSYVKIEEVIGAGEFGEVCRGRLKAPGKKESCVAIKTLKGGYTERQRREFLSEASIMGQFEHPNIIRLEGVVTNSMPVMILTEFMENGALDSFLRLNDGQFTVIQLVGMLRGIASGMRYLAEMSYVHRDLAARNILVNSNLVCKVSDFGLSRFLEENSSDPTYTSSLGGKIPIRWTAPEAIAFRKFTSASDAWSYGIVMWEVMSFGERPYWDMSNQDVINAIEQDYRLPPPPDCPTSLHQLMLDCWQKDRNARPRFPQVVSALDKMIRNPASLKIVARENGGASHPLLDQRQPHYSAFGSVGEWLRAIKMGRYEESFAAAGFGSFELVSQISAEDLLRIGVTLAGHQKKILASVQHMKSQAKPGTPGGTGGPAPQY

Row | Activation of EphB4 [4] | Substance | Degradation in PC3 cell conditioned medium [1] | Stability in mouse serum ex vivo [2] | Circulation half-life (t1/2) [3] | AUC [3] [% ID-h/ml]
1 | unable to detectably activate EphB4 | TNYL-RAW-Fc: TNYL-RAW fused through a GSGSK linker to the Fc portion of human IgG1, from HEK 293 cells (TNYLFSPNGPIARAWGSGSK-{Fc (human IgG1)}; also: dimer) | absence of peptide degradation | much decreased degradation; also recorded: not as stable in mouse serum as the streptavidin-bound or PEGylated peptide | ~1 h and 0.8 h | 140
2 | unable to detectably activate EphB4 | TNYL-RAW-streptavidin: biotinylated TNYL-RAW in complex with streptavidin at molar ratio 4:1 | absence of peptide degradation | much decreased degradation | ~1 h and 1.3 h | 110
